Reference: PMC6423499 (2019)

Target: VHL (VHL/ElonginB/ElonginC, VCB) as used in solution (UniProt P40337 1-213; Q15370 1-104; Q15369 17-112)
Assay: FP; MZ1 ternary

VHL (VHL/ElonginB/ElonginC, VCB) as used in solution, sequence (P40337 whole entry, chain 1 of 3): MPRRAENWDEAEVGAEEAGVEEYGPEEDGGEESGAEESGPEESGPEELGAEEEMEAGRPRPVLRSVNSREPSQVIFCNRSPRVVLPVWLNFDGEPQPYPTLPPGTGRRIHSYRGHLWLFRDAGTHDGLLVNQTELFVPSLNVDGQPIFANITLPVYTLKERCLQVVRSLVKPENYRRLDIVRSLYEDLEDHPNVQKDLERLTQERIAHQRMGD
VHL (VHL/ElonginB/ElonginC, VCB) as used in solution, sequence (Q15370 1-104, chain 2 of 3): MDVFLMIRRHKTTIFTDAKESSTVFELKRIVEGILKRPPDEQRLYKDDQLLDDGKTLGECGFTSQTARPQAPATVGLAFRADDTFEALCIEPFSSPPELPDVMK
VHL (VHL/ElonginB/ElonginC, VCB) as used in solution, sequence (Q15369 17-112, chain 3 of 3): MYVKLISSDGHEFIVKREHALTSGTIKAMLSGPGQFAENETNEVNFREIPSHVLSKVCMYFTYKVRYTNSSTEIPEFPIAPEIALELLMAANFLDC

B1: Brd2^BD2 with the G-to-E point mutation at Gly382 (domain or fragment)
chain: GKLSEQLKHCNGILKELLSKKHAAYAWPFYKPVDASALELHDYHDIIKHPMDLSTVKRKMENRDYRDAQEFAADVRLMFSNCYKYNPPDHDVVAMARKLQDVFEFRYAKMPD
  Ki: 6 nM
